Data reported in PMC12013189, “Phospho-regulated tethering of focal adhesion kinase to vinculin links force transduction to focal adhesion signaling” (Cell Communication and Signaling : CCS, 2025).
Ends that are not written are not given here.

B2: FAT domain of Focal Adhesion Kinase, wild type (hFAK904-1052) (domain or fragment, human, UniProt Q05397 904-1052, looked up)
chain: LQPQEISPPPTANLDRSNDKVYENVTGLVKAVIEMSSKIQPAPPEEYVPMVKEVGLALRTLLATVDETIPLLPASTHREIEMAQKLLNSDLGELINKMKLAQQYVMTSLQQEYKKQMLTAAHALAVDAKNLLDVIDQARLKMLGQTRPH
notes: focal adhesion kinase (FAK), human, FAT domain, residues 904-1052 (hFAK904-1052); also called FAT-WT; source: E. coli BL21(DE3), purified (His-Trap, TEV digest, Source 15Q, Ni-NTA flow-through, Superdex200); not shown: His6, N-terminal, cleaved

Experiments:
[1] = biological target: T1, full-length vinculin (Vin-FL, hVinculin1-1066) (Homo sapiens, UniProt P18206); experiment: Fluorescence anisotropy binding to full-length vinculin; conditions: 25 nM FITC labelled peptide, pH7.5, 22 °C, one-site binding model, 4 measurements, read-out: Apparent KD for full-length vinculin (Vin-FL)
T1 construct: Vin-FL (hVinculin1-1066) and Vin-T (hVinculin891-1066) were ordered from GenScript; 6xHis (TEV cleavable) (N, cleaved yes); made in house; host or cells: E. coli BL21(DE3)
T1 sequence (P18206 1-1066 isoform P18206-2): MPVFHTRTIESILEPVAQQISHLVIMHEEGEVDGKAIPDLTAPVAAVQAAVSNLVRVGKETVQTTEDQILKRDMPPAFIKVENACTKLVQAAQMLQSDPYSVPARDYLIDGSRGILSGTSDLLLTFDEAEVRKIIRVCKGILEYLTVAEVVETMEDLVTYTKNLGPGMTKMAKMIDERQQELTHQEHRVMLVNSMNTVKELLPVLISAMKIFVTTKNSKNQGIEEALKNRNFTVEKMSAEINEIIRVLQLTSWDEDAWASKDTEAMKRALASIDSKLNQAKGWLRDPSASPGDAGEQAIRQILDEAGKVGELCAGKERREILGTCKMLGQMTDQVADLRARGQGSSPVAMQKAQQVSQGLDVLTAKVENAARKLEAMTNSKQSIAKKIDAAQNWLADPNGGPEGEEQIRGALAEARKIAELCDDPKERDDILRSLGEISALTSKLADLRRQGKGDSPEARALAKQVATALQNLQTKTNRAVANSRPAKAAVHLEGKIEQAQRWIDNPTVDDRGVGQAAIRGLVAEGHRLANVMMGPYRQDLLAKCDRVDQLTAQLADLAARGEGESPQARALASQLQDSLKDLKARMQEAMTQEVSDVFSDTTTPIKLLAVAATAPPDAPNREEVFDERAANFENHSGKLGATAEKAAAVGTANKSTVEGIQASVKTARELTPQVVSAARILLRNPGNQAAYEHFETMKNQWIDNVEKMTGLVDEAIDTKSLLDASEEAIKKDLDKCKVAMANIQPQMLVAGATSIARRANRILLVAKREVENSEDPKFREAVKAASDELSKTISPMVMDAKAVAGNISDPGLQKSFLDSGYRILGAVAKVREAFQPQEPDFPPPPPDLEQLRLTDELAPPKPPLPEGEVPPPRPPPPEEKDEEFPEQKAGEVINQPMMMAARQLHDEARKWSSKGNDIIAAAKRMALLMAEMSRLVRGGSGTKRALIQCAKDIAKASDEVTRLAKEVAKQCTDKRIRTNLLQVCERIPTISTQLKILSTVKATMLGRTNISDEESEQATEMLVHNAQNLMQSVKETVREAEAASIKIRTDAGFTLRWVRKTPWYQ
Description: (§1) Expression plasmids for FAT (hFAK904-1052 WT and mutants H14, H23 and H14-23), Vin-FL (hVinculin1-1066) and Vin-T (hVinculin891-1066) were ordered from GenScript in the pET28(+) vector, adding a TEV cleavable N-terminal 6xHis tag to the expressed proteins. Mutant FAT-H14 contains the mutations I936A, H1025A, K1032A; FAT-H23 contains the mutations K955A, R962A, I998A and FAT-14-23 contains the combined mutations I936A, K955A, R962A, I998A, H1025A, K1032A. All plasmids were introduced into E.coli strain BL21(DE3) for expression. Cells were grown in LB media, induced with 1 mM IPTG at an OD (600 nm) of 0.6 and grown over night at 20 °C. […]
(§2) Binding curves were determined in a total of 20 µl in black 384 well plates, by titrating protein concentrations (typically up to 50 µM) at a fixed concentration of 25 nM FITC labelled LD peptides (Apeptide Co. Ltd) in 20 mM Tris pH7.5, 150 mM NaCl, 1mM TCEP. Anisotropy measurements were preformed at 22 °C on a Spark® Multimode microplate reader (Tecan) with polarizers, at an excitation wavelength of 485 nm and an emission wavelength of 535 nm (20 nm bandwidth). KD values were extracted by fitting a one-site binding model using the GraphPad Prism software, using the equation: Y = Bmax*X/(KD + X), where Y is the measured anisotropy, X the protein concentration and Bmax the maximal anisotropy value at binding saturation.

[2] = biological target: T2, vinculin tail domain (Vin-T, hVinculin891-1066) (Homo sapiens, UniProt P18206); experiment: Fluorescence anisotropy binding to vinculin tail domain; conditions: 25 nM FITC labelled peptide, pH7.5, 22 °C, one-site binding model, 4 measurements, read-out: Apparent KD for vinculin tail domain (Vin-T)
T2 construct: Vin-FL (hVinculin1-1066) and Vin-T (hVinculin891-1066) were ordered from GenScript; 6xHis (TEV cleavable) (N, cleaved yes); made in house; host or cells: E. coli BL21(DE3)
T2 sequence (P18206 891-1066 isoform P18206-2): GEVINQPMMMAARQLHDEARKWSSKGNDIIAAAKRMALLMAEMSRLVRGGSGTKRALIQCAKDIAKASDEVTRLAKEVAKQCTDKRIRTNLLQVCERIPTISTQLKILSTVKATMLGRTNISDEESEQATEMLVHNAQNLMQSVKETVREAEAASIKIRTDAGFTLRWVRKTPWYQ
Description: as §1, §2

[3] = biological target: T3, FAT domain of FAK (hFAK904-1052 WT) (Homo sapiens, UniProt Q05397); experiment: Fluorescence anisotropy binding of FITC LD peptides to FAT-WT
T3 construct: Expression plasmids for FAT (hFAK904-1052 WT and mutants H14, H23 and H14-23); 6xHis (TEV cleavable) (N, cleaved yes); made in house; host or cells: E. coli BL21(DE3)
T3 sequence (Q05397 904-1052): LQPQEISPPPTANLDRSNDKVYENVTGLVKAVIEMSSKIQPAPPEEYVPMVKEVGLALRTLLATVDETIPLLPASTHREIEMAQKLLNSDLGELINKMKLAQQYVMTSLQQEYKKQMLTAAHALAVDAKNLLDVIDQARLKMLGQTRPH
Description: Expression plasmids for FAT (hFAK904-1052 WT and mutants H14, H23 and H14-23), Vin-FL (hVinculin1-1066) and Vin-T (hVinculin891-1066) were ordered from GenScript in the pET28(+) vector, adding a TEV cleavable N-terminal 6xHis tag to the expressed proteins. Mutant FAT-H14 contains the mutations I936A, H1025A, K1032A; FAT-H23 contains the mutations K955A, R962A, I998A and FAT-14-23 contains the combined mutations I936A, K955A, R962A, I998A, H1025A, K1032A. All plasmids were introduced into E.coli strain BL21(DE3) for expression. Cells were grown in LB media, induced with 1 mM IPTG at an OD (600 nm) of 0.6 and grown over night at 20 °C. Cells were pelleted at 6000 rpm and resuspended in 20 mM Tris pH8, 200 mM NaCl, 5% Glycerol, 10 mM imidazole, 2mM TCEP, 1mM PMSF supplemented with cOmplete protein inhibitor cocktail (Roche). Cells were lysed by sonication and insoluble components removed by centrifugation at 40 K for 1 h at 4 °C. Soluble lysates were cleared through 0.45 μm filters and loaded onto His-Trap affinity columns (Cytiva), washed with step gradients up to 30 mM imidazole and eluted with a gradient up to 500 mM imidazole. Peak-fractions were digested over night with TEV protease (molar ratio ~ 1: 20) at 4 °C. Proteins were diluted to 50 mM NaCl and loaded onto a Source 15Q column, washed with 20 mM Tris pH8, 50 mM NaCl, 5% Glycerol, 1mM TCEP and eluted with a gradient up to 1 M NaCl. Peak fractions were mixed with 1 ml of Ni-NTA beads to remove TEV and uncleaved protein, adding 10 mM imidazole to prevent non-specific binding. The flow-through was concentrated, loaded onto a Superdex200 16/60 column and eluted in 20 mM Tris pH8, 200 mM NaCl, 5% Glycerol, 2mM TCEP. Peak fractions were concentrated, aliquots flash frozen in LN2 and stored at -80 °C.
as §2

[4] = biological target: vinculin tail domain (hVinculin891-1066) (human) (UniProt P18206); experiment: AUC; sedimentation velocity; Vin-T at 100 µM; 20 °C, 48,000 rpm; monomer to dimer
[5] = biological target: paxillin LD2 peptide; experiment: fluorescence polarisation; fluorescence anisotropy; protein titrated (typically up to 50 µM) at 25 nM FITC labelled LD peptide; 20 mM Tris pH7.5, 150 mM NaCl, 1mM TCEP; 22 °C; one-site binding model; apparent KD
[6] = biological target: paxillin LD1 peptide; experiment: as above
[7] = biological target: B2; experiment: as above; conditions: both partners purified
[8] = biological target: T4, FAT-H14 (hFAK904-1052 with I936A, H1025A, K1032A) (human, UniProt Q05397 904-1052, I936A | H1025A | K1032A); experiment: FP
T4 sequence: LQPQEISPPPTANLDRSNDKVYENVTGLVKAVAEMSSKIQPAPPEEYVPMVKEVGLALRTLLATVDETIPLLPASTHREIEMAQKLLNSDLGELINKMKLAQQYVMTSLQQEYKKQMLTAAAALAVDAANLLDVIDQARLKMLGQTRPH

[9] = biological target: T5, FAT domain of Focal Adhesion Kinase, wild type (hFAK904-1052) (human, UniProt Q05397 904-1052); experiment: FP
T5 chain: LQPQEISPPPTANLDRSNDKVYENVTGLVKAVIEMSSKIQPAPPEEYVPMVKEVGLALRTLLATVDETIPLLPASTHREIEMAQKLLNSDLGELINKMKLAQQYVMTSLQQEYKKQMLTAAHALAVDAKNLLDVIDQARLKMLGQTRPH

[10] = biological target: T6, FAT-Y925E phospho-mimetic mutant (human, UniProt Q05397 904-1052, Y925E); experiment: FP
T6 sequence: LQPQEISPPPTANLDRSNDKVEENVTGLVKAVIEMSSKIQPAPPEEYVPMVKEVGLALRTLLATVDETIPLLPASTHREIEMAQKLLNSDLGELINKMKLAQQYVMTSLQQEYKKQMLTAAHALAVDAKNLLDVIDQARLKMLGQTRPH

[11] = biological target: T7, FAT-Y925F phosphodeficient mutant (human, UniProt Q05397 904-1052, Y925F); experiment: FP
T7 sequence: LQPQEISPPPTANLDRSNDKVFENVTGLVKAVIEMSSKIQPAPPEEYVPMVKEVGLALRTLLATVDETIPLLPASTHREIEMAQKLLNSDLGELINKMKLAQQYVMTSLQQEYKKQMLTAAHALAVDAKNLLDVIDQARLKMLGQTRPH

[12] = biological target: T8, FAT-H23 (hFAK904-1052 with K955A, R962A, I998A) (human, UniProt Q05397 904-1052, K955A | R962A | I998A); experiment: FP
T8 sequence: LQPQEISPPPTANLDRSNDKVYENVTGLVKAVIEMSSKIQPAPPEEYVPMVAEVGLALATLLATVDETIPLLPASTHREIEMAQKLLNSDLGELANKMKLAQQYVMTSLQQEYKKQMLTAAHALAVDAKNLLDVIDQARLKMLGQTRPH

[13] = biological target: T9, paxillin LD2/4 peptide (LD2 and LD4 motifs separated by a designed linker) (FITC label (fluorescence anisotropy)); experiment: AUC; sedimentation velocity; FAT and Vin-T at 30 µM with 10 µM LD2/4 peptide; 20 mM Tris pH 7.5, 200 mM NaCl, 5% Glycerol, 1 mM TCEP; 20 °C, 58,000 rpm; absorbance at 280 nm; conditions: both partners purified
T9 chain: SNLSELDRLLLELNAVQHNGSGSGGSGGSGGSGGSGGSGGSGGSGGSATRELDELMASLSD

## CC(C)C[C@H](NC(=O)[C@H](CCC(=O)O)NC(=O)[C@H](CC(C)C)NC(=O)[C@H](CC(C)C)NC(=O)[C@H](CC(C)C)NC(=O)[C@H](CCCNC(=N)N)NC(=O)[C@H](CC(=O)O)NC(=O)[C@H](CC(C)C)NC(=O)[C@H](CCC(=O)O)NC(=O)[C@H](CO)NC(=O)[C@H](CC(C)C)NC(=O)[C@H](CC(N)=O)NC(=O)[C@@H](N)CO)C(=O)N[C@@H](CC(N)=O)C(=O)N[C@@H](C)C(=O)N[C@H](C(=O)N[C@@H](CCC(N)=O)C(=O)N[C@@H](Cc1c[nH]cn1)C(=O)N[C@@H](CC(N)=O)C(=O)O)C(C)C [LD2]
[1]
  Kd: 1.3 ± 0.3 µM
[2]
  Kd: 1.7 ± 0.3 µM

## SQLDSMLGSLQSD [LD5, synthetic peptide corresponding to the paxillin LD5 motif, FITC labelled N-terminally for anisotropy]
[3]
  binding to FAT-WT, in words: no significant affinity

## SVESLLDELES [LD3, synthetic peptide corresponding to the paxillin LD3 motif, FITC labelled N-terminally for anisotropy]
[3]
  binding to FAT-WT, in words: no significant affinity

## vinculin tail domain (hVinculin891-1066) (from UniProt P18206-2 891-1066) (domain or fragment)
[4]
  percent of Vin-T in the ~ 2.5 S form at 100 µM: 20%
  stoichiometry N: 2
[5]
  Kd: 1.7 µM
[6]
  Kd: 3.1 µM

## SATRELDELMASLSD [LD4]
[3]; 25 nM FITC labelled peptide, 20 mM Tris pH7.5, 150 mM NaCl, 1mM TCEP, 22 °C, one-site binding model, 4 measurements, read-out: Apparent KD for FAT-WT
  Kd: 2.1 ± 0.4 µM

## MDDLDALLADLES [LD1]
[2]
  Kd: 3.1 ± 0.3 µM

## full-length vinculin (hVinculin1-1066) (from UniProt P18206-2 1-1066) (natural protein)
[5]
  Kd: 1.3 µM

## ATRELDELMASLS (also: FITC label, position not given here) [paxillin LD4 peptide]
[7]
  Kd: ~2 µM
[8]
  Kd: 3.6 µM

## SNLSELDRLLLELNAVQHN (also: FITC label, position not given here) [paxillin LD2 peptide]
[9]
  Kd: 1.8 µM
[10]
  Kd: 6 µM
[11]
  Kd: 6 µM
[12]
  Kd: 3.9 µM
[8]
  Kd: 13.3 µM

B1: paxillin LD2/4 peptide (LD2 and LD4 motifs separated by a designed linker) (peptide)
chain: SNLSELDRLLLELNAVQHNGSGSGGSGGSGGSGGSGGSGGSGGSGGSATRELDELMASLSD
modifications: also: FITC label, position not given here
[10]
  Kd: 1.5 µM
[11]
  Kd: 1.4 µM
[7]
  Kd: 0.13 ± 0.01 µM
[12]
  Kd: 1.8 µM
[8]
  Kd: 5.8 µM

## MDDLDALLADLES (also: FITC label, position not given here) [paxillin LD1 peptide]
[9]
  Kd: 18.3 µM
[10]
  Kd: 24.7 µM
[11]
  Kd: 19.3 µM
[8]
  Kd: 31.4 µM

## B2
[13]
  stoichiometry N: 1 FAT per LD2/4 (2:2)
[5]
  Kd: 2 µM
[6]
  fold lower affinity than for LD2 and LD4: 10 fold

B3: FAT-H14 (hFAK904-1052 with I936A, H1025A, K1032A) (domain or fragment)
chain: LQPQEISPPPTANLDRSNDKVYENVTGLVKAVAEMSSKIQPAPPEEYVPMVKEVGLALRTLLATVDETIPLLPASTHREIEMAQKLLNSDLGELINKMKLAQQYVMTSLQQEYKKQMLTAAAALAVDAANLLDVIDQARLKMLGQTRPH
[5]
  fold reduction of affinity against FAT-WT: 7 fold
